{"source": "patent US20200165325A1", "key": {"[1]": {"biological_target": "HIV-1 Env of strain 1056_10_TA11_1826 (HIV-1)"}, "[2]": {"biological_target": "HIV-1 Env of strain 3817.v2.c59 (HIV-1)"}, "[3]": {"biological_target": "HIV-1 Env of strain Du422.1 (HIV-1)"}, "[4]": {"biological_target": "HIV-1 Env of strain 6811.v7.c18 (HIV-1)"}, "[5]": {"biological_target": "HIV-1 Env of strain ZM135M.PL10a (HIV-1)"}, "[6]": {"biological_target": "HIV-1 Env of strain REJO4541.67 (HIV-1)"}, "[7]": {"biological_target": "HIV-1 Env of strain T257-31 (HIV-1)"}, "[8]": {"biological_target": "HIV-1 Env of strain SC422661.8 (HIV-1)"}, "[9]": {"biological_target": "HIV-1 Env of strain T278-50 (HIV-1)"}, "[10]": {"biological_target": "HIV-1 Env of strain 1054_07_TC4_1499 (HIV-1)"}, "[11]": {"biological_target": "HIV-1 Env of strain CNE17 (HIV-1)"}, "[12]": {"biological_target": "HIV-1 Env of strain R1166.c01 (HIV-1)"}, "[13]": {"biological_target": "HIV-1 Env of strain CNE21 (HIV-1)"}, "[14]": {"biological_target": "HIV-1 Env of strain X1193_c1 (HIV-1)"}, "[15]": {"biological_target": "HIV-1 Env of strain THRO4156.18 (HIV-1)"}, "[16]": {"biological_target": "HIV-1 Env of strain HIV-16845-2.22 (HIV-1)"}, "[17]": {"biological_target": "HIV-1 Env of strain C2101.c01 (HIV-1)"}, "[18]": {"biological_target": "HIV-1 Env of strain 89-F1_2_25 (HIV-1)"}, "[19]": {"biological_target": "HIV-1 Env of strain CNE58 (HIV-1)"}, "[20]": {"biological_target": "HIV-1 Env of strain ZM247v1(Rev-) (HIV-1)"}, "[21]": {"biological_target": "HIV-1 Env of strain RHPA4259.7 (HIV-1)"}, "[22]": {"biological_target": "HIV-1 Env of strain C1080.c03 (HIV-1)"}, "[23]": {"biological_target": "HIV-1 Env of strain Q842.d12 (HIV-1)"}, "[24]": {"biological_target": "HIV-1 Env of strain 0815.v3.c3 (HIV-1)"}, "[25]": {"biological_target": "HIV-1 Env of strain Q461.e2 (HIV-1)"}, "[26]": {"biological_target": "HIV-1 Env of strain Ce703010054_2A2 (HIV-1)"}, "[27]": {"biological_target": "HIV-1 Env of strain ZM53M.PB12 (HIV-1)"}, "[28]": {"biological_target": "HIV-1 Env of strain CAP210.2.00.E8 (HIV-1)"}, "[29]": {"biological_target": "HIV-1 Env of strain CNE20 (HIV-1)"}, "[30]": {"biological_target": "HIV-1 Env of strain ZM197M.PB7 (HIV-1)"}, "[31]": {"biological_target": "HIV-1 Env of strain CNE53 (HIV-1)"}, "[32]": {"biological_target": "HIV-1 Env of strain 6545.v4.c1 (HIV-1)"}, "[33]": {"biological_target": "HIV-1 Env of strain TRO.11 (HIV-1)"}, "[34]": {"biological_target": "HIV-1 Env of strain CAP45.2.00.G3 (HIV-1)"}, "[35]": {"biological_target": "HIV-1 Env of strain TRJO4551.58 (HIV-1)"}, "[36]": {"biological_target": "HIV-1 Env of strain AC10.0.29 (HIV-1)"}, "[37]": {"biological_target": "HIV-1 Env of strain Ce0393_C3 (HIV-1)"}, "[38]": {"biological_target": "HIV-1 Env of strain Q23.17 (HIV-1)"}, "[39]": {"biological_target": "HIV-1 Env of strain 620345.c01 (HIV-1)"}, "[40]": {"biological_target": "HIV-1 Env of strain X1254_c3 (HIV-1)"}, "[41]": {"biological_target": "HIV-1 Env of strain 3415.v1.c1 (HIV-1)"}, "[42]": {"biological_target": "HIV-1 Env of strain ZM214M.PL15 (HIV-1)"}, "[43]": {"biological_target": "HIV-1 Env of strain WEAU_d15_410_787 (HIV-1)"}, "[44]": {"biological_target": "HIV-1 Env of strain CNE30 (HIV-1)"}, "[45]": {"biological_target": "HIV-1 Env of strain Du172.17 (HIV-1)"}, "[46]": {"biological_target": "HIV-1 Env of strain 1006_11_C3_1601 (HIV-1)"}, "[47]": {"biological_target": "HIV-1 Env of strain 211-9 (HIV-1)"}, "[48]": {"biological_target": "HIV-1 Env of strain Du156.12 (HIV-1)"}, "[49]": {"biological_target": "HIV-1 Env of strain 6535.3 (HIV-1)"}, "[50]": {"biological_target": "HIV-1 Env of strain WITO4160.33 (HIV-1)"}, "[51]": {"biological_target": "HIV-1 Env of strain 3103.v3.c10 (HIV-1)"}, "[52]": {"biological_target": "HIV-1 Env of strain Ce0682_E4 (HIV-1)"}, "[53]": {"biological_target": "HIV-1 Env of strain 3718.v3.c11 (HIV-1)"}, "[54]": {"biological_target": "HIV-1 Env of strain Ce2010_F5 (HIV-1)"}, "[55]": {"biological_target": "HIV-1 Env of strain P1981_C5_3 (HIV-1)"}, "[56]": {"biological_target": "HIV-1 Env of strain PVO.4 (HIV-1)"}, "[57]": {"biological_target": "HIV-1 Env of strain 0330.v4.c3 (HIV-1)"}}, "data": [{"substance": "NIH45-46 IgG (wild type) (antibody)", "values": [{"measurement": "In vitro neutralization IC80", "setting": "[1]", "result": 0.447, "unit": "µg/mL"}, {"measurement": "In vitro neutralization IC80", "setting": "[2]", "result": "> 50", "unit": "µg/mL"}, {"measurement": "In vitro neutralization IC80", "setting": "[3]", "result": "> 50", "unit": "µg/mL"}, {"measurement": "In vitro neutralization IC80", "setting": "[4]", "result": 0.113, "unit": "µg/mL"}, {"measurement": "In vitro neutralization IC80", "setting": "[5]", "result": 2.79, "unit": "µg/mL"}, {"measurement": "In vitro neutralization IC80", "setting": "[6]", "result": 0.035, "unit": "µg/mL"}, {"measurement": "In vitro neutralization IC80", "setting": "[7]", "result": 1.38, "unit": "µg/mL"}, {"measurement": "In vitro neutralization IC80", "setting": "[8]", "result": 0.13, "unit": "µg/mL"}, {"measurement": "In vitro neutralization IC80", "setting": "[9]", "result": "> 50", "unit": "µg/mL"}, {"measurement": "In vitro neutralization IC80", "setting": "[10]", "result": 0.404, "unit": "µg/mL"}, {"measurement": "In vitro neutralization IC80", "setting": "[11]", "result": 0.734, "unit": "µg/mL"}, {"measurement": "In vitro neutralization IC80", "setting": "[12]", "result": 1.21, "unit": "µg/mL"}, {"measurement": "In vitro neutralization IC80", "setting": "[13]", "result": 38.1, "unit": "µg/mL"}, {"measurement": "In vitro neutralization IC80", "setting": "[14]", "result": 0.064, "unit": "µg/mL"}, {"measurement": "In vitro neutralization IC80", "setting": "[15]", "result": 8.22, "unit": "µg/mL"}, {"measurement": "In vitro neutralization IC80", "setting": "[16]", "result": 22.6, "unit": "µg/mL"}, {"measurement": "In vitro neutralization IC80", "setting": "[17]", "result": 31.4, "unit": "µg/mL"}, {"measurement": "In vitro neutralization IC80", "setting": "[18]", "result": "> 50", "unit": "µg/mL"}, {"measurement": "In vitro neutralization IC80", "setting": "[19]", "result": 2.08, "unit": "µg/mL"}, {"measurement": "In vitro neutralization IC80", "setting": "[20]", "result": 24.5, "unit": "µg/mL"}, {"measurement": "In vitro neutralization IC80", "setting": "[21]", "result": 0.047, "unit": "µg/mL"}, {"measurement": "In vitro neutralization IC80", "setting": "[22]", "result": 11.6, "unit": "µg/mL"}, {"measurement": "In vitro neutralization IC80", "setting": "[23]", "result": 0.073, "unit": "µg/mL"}, {"measurement": "In vitro neutralization IC80", "setting": "[24]", "result": 0.052, "unit": "µg/mL"}, {"measurement": "In vitro neutralization IC80", "setting": "[25]", "result": 0.291, "unit": "µg/mL"}, {"measurement": "In vitro neutralization IC80", "setting": "[26]", "result": 0.538, "unit": "µg/mL"}, {"measurement": "In vitro neutralization IC80", "setting": "[27]", "result": 0.61, "unit": "µg/mL"}, {"measurement": "In vitro neutralization IC80", "setting": "[28]", "result": "> 50", "unit": "µg/mL"}, {"measurement": "In vitro neutralization IC80", "setting": "[29]", "result": "> 50", "unit": "µg/mL"}, {"measurement": "In vitro neutralization IC80", "setting": "[30]", "result": 0.55, "unit": "µg/mL"}, {"measurement": "In vitro neutralization IC80", "setting": "[31]", "result": 0.039, "unit": "µg/mL"}, {"measurement": "In vitro neutralization IC80", "setting": "[32]", "result": "> 50", "unit": "µg/mL"}, {"measurement": "In vitro neutralization IC80", "setting": "[33]", "result": 7.49, "unit": "µg/mL"}, {"measurement": "In vitro neutralization IC80", "setting": "[34]", "result": "> 50", "unit": "µg/mL"}, {"measurement": "In vitro neutralization IC80", "setting": "[35]", "result": 0.13, "unit": "µg/mL"}, {"measurement": "In vitro neutralization IC80", "setting": "[36]", "result": 1.93, "unit": "µg/mL"}, {"measurement": "In vitro neutralization IC80", "setting": "[37]", "result": 0.936, "unit": "µg/mL"}, {"measurement": "In vitro neutralization IC80", "setting": "[38]", "result": 0.5, "unit": "µg/mL"}, {"measurement": "In vitro neutralization IC80", "setting": "[39]", "result": "> 50", "unit": "µg/mL"}, {"measurement": "In vitro neutralization IC80", "setting": "[40]", "result": 0.107, "unit": "µg/mL"}, {"measurement": "In vitro neutralization IC80", "setting": "[41]", "result": 0.086, "unit": "µg/mL"}, {"measurement": "In vitro neutralization IC80", "setting": "[42]", "result": 0.59, "unit": "µg/mL"}, {"measurement": "In vitro neutralization IC80", "setting": "[43]", "result": 0.015, "unit": "µg/mL"}, {"measurement": "In vitro neutralization IC80", "setting": "[44]", "result": 1.07, "unit": "µg/mL"}, {"measurement": "In vitro neutralization IC80", "setting": "[45]", "result": "> 50", "unit": "µg/mL"}, {"measurement": "In vitro neutralization IC80", "setting": "[46]", "result": 0.196, "unit": "µg/mL"}, {"measurement": "In vitro neutralization IC80", "setting": "[47]", "result": "> 50", "unit": "µg/mL"}, {"measurement": "In vitro neutralization IC80", "setting": "[48]", "result": 0.054, "unit": "µg/mL"}, {"measurement": "In vitro neutralization IC80", "setting": "[49]", "result": 0.54, "unit": "µg/mL"}, {"measurement": "In vitro neutralization IC80", "setting": "[50]", "result": 0.26, "unit": "µg/mL"}, {"measurement": "In vitro neutralization IC80", "setting": "[51]", "result": 6.15, "unit": "µg/mL"}, {"measurement": "In vitro neutralization IC80", "setting": "[52]", "result": 0.155, "unit": "µg/mL"}, {"measurement": "In vitro neutralization IC80", "setting": "[53]", "result": "> 50", "unit": "µg/mL"}, {"measurement": "In vitro neutralization IC80", "setting": "[54]", "result": 0.357, "unit": "µg/mL"}, {"measurement": "In vitro neutralization IC80", "setting": "[55]", "result": 0.24, "unit": "µg/mL"}, {"measurement": "In vitro neutralization IC80", "setting": "[56]", "result": 0.41, "unit": "µg/mL"}, {"measurement": "In vitro neutralization IC80", "setting": "[57]", "result": 0.3, "unit": "µg/mL"}]}]}
